Source: the nanobody polyreactivity screen of Harvey et al. (2022)

Assay: yeast display, Sf9 membrane polyspecificity reagent, FACS + sequencing; frameworks hold sequencing errors
Summary of the method: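 After 36–48 hours of galactose induction, yeast (Saccharomyces cerevisiae BJ5465) displaying a synthetic nanobody library were stained at 4 °C for 1 hour with 10% biotinylated, detergent-solubilized Sf9 membrane reagent. Streptavidin microbeads enriched the stained cells before FACS sorting into low and high (top ~1%) gates on anti-HA and streptavidin fluorescence. Each clone's polyreactivity label reflects its gate of origin.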

| Sequence | polyreactivity (PSR sort gate) |
| --- | --- |
| QVQLVESGAGLVQAGGSLRLSCASSGYIFDRYAMGWYRQAPGKERELVAAISGRGGSTYYADSVKGRFTISRDNAKYTVYLKMNSLKPEDTAVYYCARDVYVRYGQRARYDSWGQGTQVTVSS | high polyreactivity |
| QVQLVESGGGLVQAGGSLRLSCDASGSIFYYNAMGWYRQAPGKERELVAAISVSGGSTYYADSVKGRFTISRDNAKNTVYLQMNSLKPEDTAVYYCAAEWLYYYWLPGRADYLEYDYWGQGTQVTVSS | low polyreactivity |
| QVQLVESGGGLVQAGGSLRLSSAASGIIFGGSAMGWYRQAPGKEWELVAAISRSGGSTYYADSVKGRFTISRDNPKKTVYLQMNSLKPEDTAVYYCNAVPRRKGFNYWGQGTQVTVSS | high polyreactivity |
| QVQLVESGGGLVQAGGSLRLSCAASGSSFGYYAMGWYRPAPGKERELVAAITRRGVNTYYADSVKGRFTISRDNAKNTVYLQMNSLKPEDTAVYYCAATWWQYAQGLHRYDYWGQGTQVTVSS | high polyreactivity |
| QVQLVESGGGLVQAGGSLRLSCAASGRTFIYYAMGWYRQAPGKERELVAAITNRGGRTYYADSVKWRFTISRDNAKYTVYLQMNSLKPEDTAVYYCNRVGTYHSYDYWGQGTQVTVSS | high polyreactivity |
| QVQLVESGGGLVQAGGSLRLSCAASGRTFGFYTMGWYRPAPGKERELVAAITSRGGITTYADSVKGRFTISRDNAKNTVYLQLNSLIPEDTAVYYCAASLRAPSLGHYYYWGQGTQVTVSS | high polyreactivity |
| QVQLVESGGGLVQAGGSLRLSCAASGSTFDFNAMGWSRQAPGKERELVAAITYSGGSTYYADSVKGRFTISRDNAKNTVYLKMNSLKPEDTAVYYCAAEDVYPGSIDMDYWGQGTQVTVSS | low polyreactivity |
| QVQLVESGGGLVQAGGTLRLSCAATGRILHIYAMGWYRQAPGKERELVAVISTGGGDTYYADSVKGRFTISRDNANNTVYLQMNSRKPEDTAVYYCAADGYWAGYGYDYWGQGTQVTVSS | high polyreactivity |
| QVQLVESAGRLVQAGGSLRLSCAASGSTFYSYAMGWYRQAPGKEREFVAAITYSDGITYYADSVKGRFTISRDNAKNTVYLQMNSLKPEDTAVYYCAKAPIWGVTRKFDYWGQGNQVTVSS | high polyreactivity |
| QVQLVESGGGLVQAVGSLRLSCAASGFTFQHYAMGWYRQAPGNERELVAVISFSGGRTYYADSVKGRFTISRDNAKNTVYLQMNSLKPEDTAVYYCAAVFWDDYGKYYYWGLGTQVTVSS | high polyreactivity |
| QVQLVESGGGLVQAGGSLRLSCAASGSIFGYYAMGWYRQAPGKERELVAAITRVSSTNYADSVKGRFTISRDNAKYTVYLHMNSLKPEDTAVYYCAARTLRYYQGNTWGDDYWGQGTQVTVSS | high polyreactivity |
| QVQLGESGGGLVQAGGSLRLSCAASGSIFVPYAMGWYRQAPGKERELVAVITSGGSTYYADSVKGRFTISRDNAKNTVYLQMNSLKPEDTAVYYCYADLYYVWSTLSQFDYWGQGTQVTVSS | low polyreactivity |
| QVQLVESGGGLVQAGGSLRLSCAASGLTFRYNAMGWYRQAPGKERELVARISRNGGRTYYADSVKGRFTISRDNAKNTVYLQMNSLKPEDTAVYYCNVVYFVTTSPGYDYWGQGTQVTVSS | high polyreactivity |
| QVQHVESGGGLVQAGGSLRLSCAASGFTSTVYAMGCYRQAPGKERELVASITWSGGRTYYADSVKGRFTISRDNAKNTVYFQMNSLKPEDTAVYYCAARTYSYGSILKYYYWGQGSQVTVSS | high polyreactivity |
| QVQLVESGGVLVQAVGSLRLSCAASGRIFKNYAMGWYIQAPGKESELVAAISWSGGRTYYADSVKGRFTISRDNAKNTVYLQMNSLKPEDTAVYYCAVDFYYYGSRYYYWGQGTQVTVSS | high polyreactivity |
| QVQLVESGGGLVQAGGSLRLSCAASGSTFGWYAMGGYRQAPGKERELVAAISASGGATYYADSVKGRFTISRDNAKNTVYLQMNSLKPEDTAVYYCAAVRYPNWYDYWGQGTQVTVSS | high polyreactivity |
| QVQLVESGGGLVQAGGSLRLSCAASGFTFYYYAMGWYRQAPGKERELVAVITSGGNTYYADSVKGRFTISRDNAKNNVYLQMNSLKPEDTAVYYCAKDVSDPFYDPFEYWGQGTQVTVSS | low polyreactivity |
| QVQIVESGGGLVQAGGSLRLSCAASGFTFRAYAMGWYRQAPGKERELDAAISKSGGRTYYADSVKGRFTISRDNAKNTVYLQMNSLKPEDTAVYYCAKAYRRAFINNPDVYYYPDDYWGQGTQVTVSS | high polyreactivity |
| QVQLVESGGGLVQAGGSLRLSCAASGFIFRVNAMGWSRQEPGKERELVAAISASGGTTYYADSVKGRFTISRDNAKNTVYLQMNSQKPEDTAVYYCIAPSRTRYDFWGQGTQVTVSW | low polyreactivity |
| QVQLVESGGGLVQAGGSLRLSCAASGITFGEYAMGWYRQAPGKERQLVAAITTSGTSTYYADSVKGRFTISRDNAKNTDYLQMNSLKPEDTAVYYCAAYSRAAAGFYSSRRDYYWGQGTQVSVSS | low polyreactivity |
| QVQLVESGGGLVQAGCSLRLSCAASGFIFQANAMGWYRQAPGKERELVAAIDDGDSTYADSVKGRFTISRDNAKNTVYLQMNSLKPEDTAVYYCNADLYGAQDRRLDYYAEGYWGQGTQVTVSS | low polyreactivity |
| QVQLVESGGGLVQAGGSLRLSCAASGRIFSYYAMGWYRQAPGKERELVASITWSGGSTYYADSVKGRFTISRDYAKNTVYLQMNRLKPEDTAVYYCNTAVLAPYDSGYWGQGTQVTVSS | low polyreactivity |

| Sequence | polyreactivity (PSR sort gate) |
| --- | --- |
| QVQLVESGGGLVQAGGSLRLSCAASGSIFSGKAMGWYRQAPGKERELVASINRSGGSTYSADSVKGRFTISRDNAKYTVYLQMNSLKPEDTAVYSCAARRVWLAGYDSWGQGTQVTVSS | low polyreactivity |
| QLQLVESGGGLVQAGGSIRLSCAASGSIFYRYAKGWNRQAPGKESELVAAISSRGGSKYYADSVKARFTISRDNAKNTVYLQMNSLKPEDTAVYYCAARSGGSGGTYGYWGQGPQVTVSS | high polyreactivity |
| QVQLVESGGGLVQAGGSLRLSCAASGRIFVDNAMGWYRQAPGKERELVATISWSGGSTYADSVKGRFTISRDNAKNTVYLQMNSLKPEDTAVYYCAADGSWQFYTLYQEFDYWGQGTQVTVSS | low polyreactivity |
| QVQLVESGGGLVQAGGSLRLICAASGITFSTYTMGWYRQAPRKEREFVAAISSRGGSTYYADSVKGRFTISRDNAKNTAYLQMNRLIPEVTAVYYCAAALVAPFDYWVQGTQVTVSS | high polyreactivity |
| QVQLVESGGGLVQAGGSLRLSCAASGFTFSRNAMGWYRQAPGKERELVAAIDSGGSTDYADSVKGRFTISRDNAKNTVYLQMNSLKPEDTAVYYCAIASSATRYVQLRQDYDYWGQGTQVTVSS | low polyreactivity |
| QVQLVESGGGLVQAGGSLRLSCAASGFTFYSNAMGWYRQAPGKEREMVATITASGGSTYYADSVKGRFTNSRDNAKYTVYVQMYSLKPEDTAVYYCAKDLYWYYRRRGQYVYWGQGTQVTVSS | high polyreactivity |
| QVQLVESAGGLVQAGASLRLSCAASGGTSPVYAMGWYRQAPGKERELVAAIRYSGGRTNYADSVKGRFTISRDNAKNTVYLQMNSLKPEDTAVYYCAARGYRYQGDYWGQGTQVTVSS | high polyreactivity |
| QVQLVESAGGLVQAGGSLSIICAASGFTFSPYTMGWYRKAPGKERELVAAINRRGVSTYYADSVKGRFTISRDNEKNTVYLQMNSLKPEDTAVYYCAAEWYYQYSIYRYGYWGQGTQVTVSS | low polyreactivity |
| QVQLVESGGGLVQAGGSLRLSCAASGGTFGSYAMGWYRQAPGKDRELVAAITGSGGRTYYADTVKGRFTISRDNAKNTVYLQMKSLKPEDTAVYYCNATRGIGTPYYYWGQGTQVTVSS | high polyreactivity |
| QVHLVESGGGLVQAGGSLRLSCAASGRIFRRYAMGWSRQAPGKERELVAAISSGGSTYYADSVKGRFTISRDNAKNTVYLQMNSLKPEDTAVYYCNAKVGAYLNYGYWGQGTQVTVSS | low polyreactivity |
| QVQLVESGGRLVQAGGSLRLSCAASGFTFGHYAMGWSRPARGKEWELVAAIRWSGGSTYYADSVKGRFTISRDNAKNTVYLQMNSLKPEDTAVYYCAARRFDGFEYDYWGDGTQVTVSS | low polyreactivity |
| QVQLEDSGGGLVQAGGSLRLSCAASGFTFYSYAMGWYRQATGKERELVAAISWSGTRTYYADSVKGRFTISRDNAKNTVYLQMNSLKPEDTAVYYCAARGYRYGYGYWGQGTQVTVSS | high polyreactivity |
| QVQLVESGGGLVQAGGSLRLSCAASGSIFAPYTMGWYRQAPGKERELVAAISSSGTSTYYADSVKGRFTISRDNAKNTVYLQMNSLKPEDTAVYYCAADWYYHYGYWGQGTQVTVSS | high polyreactivity |
| QVHLVESGGGLVQAGGSLRLSCAASGFTFSTYTMGWYRQSPGKERELVAAIRRSGDSTYYADSVKGRFTISRDNAKNTVYLQMNSLKPVDTAVYYCNAVLYRFERFDYWGQGTQVTVSS | high polyreactivity |
| QVQLVESGGVLVQAGGSLRISCAASGSIFGSYAMGWYRQAPGKEREFVAAIRRSSASTYYADSVKGRFTISRDNAKNTVYLQMYSLKPEDTAVYYCATQCYCYYGYRYRYAAYDYRGQGTQVTVSS | high polyreactivity |
| QVQLVESGGGLVQAVGSLRLSCAASGRTFNRYGMGWYRQAPAKEMELVAAIRWSGTTTYYADSVKGRFTISRDNAKNTVYLQMNSQKPEDTAVYYCAAGTNVGRYGYYYWGQGTQVTVSS | high polyreactivity |
| QVQLVESGGGLVQAGGSLRLSCAASGSIFGLYAMGWYRQAPGKERELVAVITYSVGTTYYADSVKGRFTISRDNAKNTVYLQMNSLKPEDTAVYYCAADLYWYYPWSAYYGEYDYWGQGTQVTVSS | low polyreactivity |
| QVQLVESGGGLLQAGGSLRLSCADSGSTFSRYSMGWYRQAPGKEREFVAAISRSGASTYYADSVKGRFTISRDNEMNTVNLQMNSLKPEDTAVYYCNTRRWRFVKYGYWGQGTQVTVSS | high polyreactivity |
| QVQLVESGGGLVQAGGSLRLSCAASGITFGGNAMGWYRQAPGKERELVAAISRRGGSTYYADSVKGRFTISRDNAKNTVYLQMNSLKPEDTAVYYCAAYDPVNSPGYDYWGQGTQVTVSS | high polyreactivity |
| QVQLVESGGGLVQAGGSLSLRCADSGRTLWAYAMGGYREAAGNDRELVAAISASGGSTYYADSVKGRFTISRDIAKNTVYLQMNSLKPADTAVYYCRLVSKGRLYDYCGQGTQVTVSS | high polyreactivity |
| QVQLVESGGGLVQAGGSLRLSCAASGGIFAANAMGWYRPAPGKERELVAAISRSGGRTYYADSVKGRFTISRDNAKNTVYLQMNSLKPEDTAVYYCAATYQASNAWYDYWGQGTQVTVSS | high polyreactivity |
